Results from US20250339531A1, “DUX4 POLYPEPTIDES AND NUCLEIC ACIDS FOR TREATING INFLAMMATORY AND AUTOIMMUNE CONDITIONS” (Fred Hutchinson Cancer Center, priority 2021, published 2025).

B1: Q16576 (protein, UniProt Q16576 1-425, looked up)
chain: MASKEMFEDTVEERVINEEYKIWKKNTPFLYDLVMTHALQWPSLTVQWLPEVTKPEGKDYALHWLVLGTHTSDEQNHLVVARVHIPNDDAQFDASHCDSDKGEFGGFGSVTGKIECEIKINHEGEVNRARYMPQNPHIIATKTPSSDVLVFDYTKHPAKPDPSGECNPDLRLRGHQKEGYGLSWNSNLSGHLLSASDDHTVCLWDINAGPKEGKIVDAKAIFTGHSAVVEDVAWHLLHESLFGSVADDQKLMIWDTRSNTTSKPSHLVDAHTAEVNCLSFNPYSEFILATGSADKTVALWDLRNLKLKLHTFESHKDEIFQVHWSPHNETILASSGTDRRLNVWDLSKIGEEQSAEDAEDGPPELLFIHGGHTAKISDFSWNPNEPWVICSVSEDNIMQIWQMAENIYNDEESDVTTSELEGQGS
modifications: full-length
B2: Q9NQC3 (protein, UniProt Q9NQC3 1-1192, looked up)
chain: MEDLDQSPLVSSSDSPPRPQPAFKYQFVREPEDEEEEEEEEEEDEDEDLEELEVLERKPAAGLSAAPVPTAPAAGAPLMDFGNDFVPPAPRGPLPAAPPVAPERQPSWDPSPVSSTVPAPSPLSAAAVSPSKLPEDDEPPARPPPPPPASVSPQAEPVWTPPAPAPAAPPSTPAAPKRRGSSGSVDETLFALPAASEPVIRSSAENMDLKEQPGNTISAGQEDFPSVLLETAASLPSLSPLSAASFKEHEYLGNLSTVLPTEGTLQENVSEASKEVSEKAKTLLIDRDLTEFSELEYSEMGSSFSVSPKAESAVIVANPREEIIVKNKDEEEKLVSNNILHNQQELPTALTKLVKEDEVVSSEKAKDSFNEKRVAVEAPMREEYADFKPFERVWEVKDSKEDSDMLAAGGKIESNLESKVDKKCFADSLEQTNHEKDSESSNDDTSFPSTPEGIKDRSGAYITCAPFNPAATESIATNIFPLLGDPTSENKTDEKKIEEKKAQIVTEKNTSTKTSNPFLVAAQDSETDYVTTDNLTKVTEEVVANMPEGLTPDLVQEACESELNEVTGTKIAYETKMDLVQTSEVMQESLYPAAQLCPSFEESEATPSPVLPDIVMEAPLNSAVPSAGASVIQPSSSPLEASSVNYESIKHEPENPPPYEEAMSVSLKKVSGIKEEIKEPENINAALQETEAPYISIACDLIKETKLSAEPAPDFSDYSEMAKVEQPVPDHSELVEDSSPDSEPVDLFSDDSIPDVPQKQDETVMLVKESLTETSFESMIEYENKEKLSALPPEGGKPYLESFKLSLDNTKDTLLPDEVSTLSKKEKIPLQMEELSTAVYSNDDLFISKEAQIRETETFSDSSPIEIIDEFPTLISSKTDSFSKLAREYTDLEVSHKSEIANAPDGAGSLPCTELPHDLSLKNIQPKVEEKISFSDDFSKNGSATSKVLLLPPDVSALATQAEIESIVKPKVLVKEAEKKLPSDTEKEDRSPSAIFSAELSKTSVVDLLYWRDIKKTGVVFGASLFLLLSLTVFSIVSVTAYIALALLSVTISFRIYKGVIQAIQKSDEGHPFRAYLESEVAISEELVQKYSNSALGHVNCTIKELRRLFLVDDLVDSLKFAVLMWVFTYVGALFNGLTLLILALISLFSVPVIYERHQAQIDHYLGLANKNVKDAMAKIQAKIPGLKRKAE
modifications: full-length
B3: O14929 (protein, UniProt O14929 1-419, looked up)
chain: MAGFGAMEKFLVEYKSAVEKKLAEYKCNTNTAIELKLVRFPEDLENDIRTFFPEYTHQLFGDDETAFGYKGLKILLYYIAGSLSTMFRVEYASKVDENFDCVEADDVEGKIRQIIPPGFCTNTNDFLSLLEKEVDFKPFGTLLHTYSVLSPTGGENFTFQIYKADMTCRGFREYHERLQTFLMWFIETASFIDVDDERWHYFLVFEKYNKDGATLFATVGYMTVYNYYVYPDKTRPRVSQMLILTPFQGQGHGAQLLETVHRYYTEFPTVLDITAEDPSKSYVKLRDFVLVKLCQDLPCFSREKLMQGFNEDMVIEAQQKFKINKQHARRVYEILRLLVTDMSDAEQYRSYRLDIKRRLISPYKKKQRDLAKMRKCLRPEELTNQMNQIEISMQHEQLEESFQELVEDYRRVIERLAQE
modifications: full-length
B4: P11802 (protein, UniProt P11802 1-303, looked up)
chain: MATSRYEPVAEIGVGAYGTVYKARDPHSGHFVALKSVRVPNGGGGGGGLPISTVREVALLRRLEAFEHPNVVRLMDVCATSRTDREIKVTLVFEHVDQDLRTYLDKAPPPGLPAETIKDLMRQFLRGLDFLHANCIVHRDLKPENILVTSGGTVKLADFGLARIYSYQMALTPVVVTLWYRAPEVLLQSTYATPVDMWSVGCIFAEMFRRKPLFCGNSEADQLGKIFDLIGLPPEDDWPRDVSLPRGAFPPRGPRPVQSVVPEMEESGAQLLLEMLTFNPHKRISAFRALQHSYLHKDEGNPE
modifications: full-length
B5: Q15393 (protein, UniProt Q15393 1-1217, looked up)
chain: MFLYNLTLQRATGISFAIHGNFSGTKQQEIVVSRGKILELLRPDPNTGKVHTLLTVEVFGVIRSLMAFRLTGGTKDYIVVGSDSGRIVILEYQPSKNMFEKIHQETFGKSGCRRIVPGQFLAVDPKGRAVMISAIEKQKLVYILNRDAAARLTISSPLEAHKANTLVYHVVGVDVGFENPMFACLEMDYEEADNDPTGEAAANTQQTLTFYELDLGLNHVVRKYSEPLEEHGNFLITVPGGSDGPSGVLICSENYITYKNFGDQPDIRCPIPRRRNDLDDPERGMIFVCSATHKTKSMFFFLAQTEQGDIFKITLETDEDMVTEIRLKYFDTVPVAAAMCVLKTGFLFVASEFGNHYLYQIAHLGDDDEEPEFSSAMPLEEGDTFFFQPRPLKNLVLVDELDSLSPILFCQIADLANEDTPQLYVACGRGPRSSLRVLRHGLEVSEMAVSELPGNPNAVWTVRRHIEDEFDAYIIVSFVNATLVLSIGETVEEVTDSGFLGTTPTLSCSLLGDDALVQVYPDGIRHIRADKRVNEWKTPGKKTIVKCAVNQRQVVIALTGGELVYFEMDPSGQLNEYTERKEMSADVVCMSLANVPPGEQRSRFLAVGLVDNTVRIISLDPSDCLQPLSMQALPAQPESLCIVEMGGTEKQDELGERGSIGFLYLNIGLQNGVLLRTVLDPVTGDLSDTRTRYLGSRPVKLFRVRMQGQEAVLAMSSRSWLSYSYQSRFHLTPLSYETLEFASGFASEQCPEGIVAISTNTLRILALEKLGAVFNQVAFPLQYTPRKFVIHPESNNLIIIETDHNAYTEATKAQRKQQMAEEMVEAAGEDERELAAEMAAAFLNENLPESIFGAPKAGNGQWASVIRVMNPIQGNTLDLVQLEQNEAAFSVAVCRFSNTGEDWYVLVGVAKDLILNPRSVAGGFVYTYKLVNNGEKLEFLHKTPVEEVPAAIAPFQGRVLIGVGKLLRVYDLGKKKLLRKCENKHIANYISGIQTIGHRVIVSDVQESFIWVRYKRNENQLIIFADDTYPRWVTTASLLDYDTVAGADKFGNICVVRLPPNTNDEVDEDPTGNKALWDRGLLNGASQKAEVIMNYHVGETVLSLQKTTLIPGGSESLVYTTLSGGIGILVPFTSHEDHDFFQHVEMHLRSEHPPLCGRDHLSFRSYYFPVKNVIDGDLCEQFNSMEPNKQKNVSEELDRTPPEVSKKLEDIRTRYAF
modifications: full-length
B6: P13489 (protein, UniProt P13489 1-461, looked up)
chain: MSLDIQSLDIQCEELSDARWAELLPLLQQCQVVRLDDCGLTEARCKDISSALRVNPALAELNLRSNELGDVGVHCVLQGLQTPSCKIQKLSLQNCCLTGAGCGVLSSTLRTLPTLQELHLSDNLLGDAGLQLLCEGLLDPQCRLEKLQLEYCSLSAASCEPLASVLRAKPDFKELTVSNNDINEAGVRVLCQGLKDSPCQLEALKLESCGVTSDNCRDLCGIVASKASLRELALGSNKLGDVGMAELCPGLLHPSSRLRTLWIWECGITAKGCGDLCRVLRAKESLKELSLAGNELGDEGARLLCETLLEPGCQLESLWVKSCSFTAACCSHFSSVLAQNRFLLELQISNNRLEDAGVRELCQGLGQPGSVLRVLWLADCDVSDSSCSSLAATLLANHSLRELDLSNNCLGDAGILQLVESVRQPGCLLEQLVLYDIYWSEEMEDRLQALEKDKPSLRVIS
modifications: full-length
B7: CDK4 (protein)
chain: ATSRYEPVAEIGVGAYGTVYKARDPHSGHFVALKSVRVPNGGGGGGGLPISTVREVALLRRLEAFEHPNVVRLMDVCATSRTDREIKVTLVFEHVDQDLRTYLDKAPPPGLPAETIKDLMRQFLRGLDFLHANCIVHRDLKPENILVTSGGTVKLADFGLARIYSYQMALTPVVVTLWYRAPEVLLQSTYATPVDMWSVGCIFAEMFRRKPLFCGNSEADQLGKIFDLIGLPPEDDWPRDVSLPRGAFPPRGPRPVQSVVPEMEESGAQLLLEMLTFNPHKRISAFRALQHSYLHKDEGNPE
B8: Q13263 (protein, UniProt Q13263 1-835, looked up)
chain: MAASAAAASAAAASAASGSPGPGEGSAGGEKRSTAPSAAASASASAAASSPAGGGAEALELLEHCGVCRERLRPEREPRLLPCLHSACSACLGPAAPAAANSSGDGGAAGDGTVVDCPVCKQQCFSKDIVENYFMRDSGSKAATDAQDANQCCTSCEDNAPATSYCVECSEPLCETCVEAHQRVKYTKDHTVRSTGPAKSRDGERTVYCNVHKHEPLVLFCESCDTLTCRDCQLNAHKDHQYQFLEDAVRNQRKLLASLVKRLGDKHATLQKSTKEVRSSIRQVSDVQKRVQVDVKMAILQIMKELNKRGRVLVNDAQKVTEGQQERLERQHWTMTKIQKHQEHILRFASWALESDNNTALLLSKKLIYFQLHRALKMIVDPVEPHGEMKFQWDLNAWTKSAEAFGKIVAERPGTNSTGPAPMAPPRAPGPLSKQGSGSSQPMEVQEGYGFGSGDDPYSSAEPHVSGVKRSRSGEGEVSGLMRKVPRVSLERLDLDLTADSQPPVFKVFPGSTTEDYNLIVIERGAAAAATGQPGTAPAGTPGAPPLAGMAIVKEEETEAAIGAPPTATEGPETKPVLMALAEGPGAEGPRLASPSGSTSSGLEVVAPEGTSAPGGGPGTLDDSATICRVCQKPGDLVMCNQCEFCFHLDCHLPALQDVPGEEWSCSLCHVLPDLKEEDGSLSLDGADSTGVVAKLSPANQRKCERVLLALFCHEPCRPLHQLATDSTFSLDQPGGTLDLTLIRARLQEKLSPPYSSPQEFAQDVGRMFKQFNKLTEDKADVQSIIGLQRFFETRMNEAFGDTKFSAVLVEPPPMSLPGAGLSSQELSGGPGDGP
modifications: full-length

Tested on: proteins that co-immunoprecipitated with DUX4-CTD constructs expressed in MB135 myoblasts
Experiment: LC-MS of proteins co-immunoprecipitated with DUX4-CTD (Table 1) and western validation
Type: binding, human
Parameters: key to 4. mL1dL2 + Dox + IFNG / 4. + IFNG mix / 4. longCTD + Dox + IFNG / 3. + IFNg + Dox longCTD / 3. + Dox longCTD / 3. + IFNG longCTD: peptide-spectrum matches (PSMs) per protein
Conditions: for 4. longCTD + Dox + IFNG: LC-MS counts of the listed protein co-immunoprecipitated with DUX4-CTD bait longCTD, experiment 4, Dox + IFNG; for 3. + IFNg + Dox longCTD: experiment 3, IFNg + Dox; for SUM of PSMS: sum over all samples; for 3. + Dox longCTD: experiment 3, Dox only
Procedure, shortened: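 FLAG-tagged DUX4-CTD expressed in doxycycline-induced MB135 myoblasts, some also IFNG-treated; nuclear lysates in pH 7.4 NP-40 IP buffer were pre-cleared, then anti-FLAG immunoprecipitated 3 h at 4 °C. For LC-MS, FLAG-peptide elution, in-gel trypsin digest, Orbitrap analysis; proteins with ≥2 PSMs in both experiments categorised and ranked by total PSMs.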

Row | Molecule | 4. longCTD + Dox + IFNG | 3. + IFNg + Dox longCTD (bait longCTD) | SUM of PSMS | 3. + Dox longCTD (bait longCTD) | 3. + IFNG longCTD (bait longCTD, experiment 3, IFNG only, no doxycycline (bait at background level)) | 4. mL1dL2 + Dox + IFNG (LC-MS value per protein co-immunoprecipitated with DUX4-CTD construct mL1dL2 in MB135 myoblasts, + Dox + IFNG, kind of count not given)
1 | B1 | 5 | 4 | 25 | – | – | –
2 | B2 | 6 | 7 | 23 | – | – | –
3 | B3 | 9 | 3 | 23 | – | – | –
4 | B4 | 11 | 1 | 16 | 1 | – | –
5 | B5 | 1 | 3 | 15 | 1 | – | –
6 | B6 | 4 | – | 15 | – | 1 | –
7 | B7 | – | – | – | – | – | 3
8 | B8 | 2 | 1 | 12 | – | – | –
